“And” between values parts separate entries of the source, which are not always exact repeats. Equal values may be shown once.
Legend:
[1] = system: CTX-I (carboxy-terminal collagen crosslinks); assay: CTX-I serum ELISA in ovariectomized mice (bone resorption); format: in vivo, C57 Rcc mice; set-up: CTX-I serum-concentration: unit not given here; details: 0.1 mg/kg
Method: In order to assess the effect of M-CSF variant on bone resorption, 10 weeks old C57 Rcc mice were ovariectomized resulting in a decrease in estrogen secretion similar to what occurs in osteoporosis. Two weeks post-surgery the mice were treated with M-CSF5.6 variant in three concentrations-0.1 mg/kg, 0.5 mg/kg and 15 mg/kg, in order to test the effect on bone resorption and to find the optimal dosage. For a period of 4 days, 0.1 and 0.5 mg/kg M-CSF5.6 treated mice received subcutaneous injections twice a day, while 15 mg/kg M-CSF5.6 treated mice received a daily subcutaneous injection. Mice were sacrificed 18-24 hours after the final injection. The amounts of type I collagen fragments in the blood were measured using CTX-I (carboxy-terminal collagen crosslinks) ELISA.
Animals were randomly divided into 2 control groups (SHAM, PBS) and 4 treatment groups (0.1, 0.5 and 15 mg/kg M-CSF5.6 and 0.1 mg/kg Alendronate as positive control). Except for the SHAM group, all animals were ovariectomized. *, ^, + represent a Haemolytic-serum sample, an unsuccessful ovariectomy procedure (as determined post mortem) and an outlier, respectively. CTX-I serum-concentration values of mice with unsuccessful ovariectomy were excluded from the analysis.

αvβ3 integrin = αvβ3 integrin (Homo sapiens, UniProt P05106+P06756); details: natural ligand and inhibitor; read-out: binding affinities of αvβ3 integrin; cited from earlier work
mature osteoclasts = assay: Actin ring formation in mature osteoclasts; format: cell-based, mouse; details: inhibitors 5 μM added to mature osteoclasts for 24 h; F-actin staining
Method: FIG. 23 are example pictures showing Actin ring formation in mature osteoclasts incubated with M-CSFRGD variants. Murine BMMs were allowed to differentiate into osteoclasts in the presence of M-CSF and RANKL for 72 h. Then, the cells were incubated for additional 24 h without (positive control) or with inhibitors (5 μM) followed by fixation and staining for F-actin and nuclei. Cells were able to form a solid actin ring (white arrowheads), scattered actin ring (white arrows) or amorphous actin distribution (barbed arrowheads). Pictures are representatives of 35 images acquired from five different wells per sample.
For a mature osteoclast to resorb bone properly, it must form unique structure termed “sealing zone”; this structure consists of an actin ring made from a dense actin mesh connected by adhesion complexes called podosomes. The formation of the actin ring involves several stages: at the beginning, podosomes are formed throughout the cell in a scattered manner, then groups of podosomes form small actin structures named belts and upon osteoclast maturation, the belts are moving to the cell periphery, cluster, and form the actin ring. Podosomes contain high levels of αvβ3 integrin which is essential for the formation of a proper actin ring with condensed podosome network. […]

[2] = BS^3 chemical cross linking / SDS-PAGE dimerization assay; format: physicochemical
Method: Then, Tris was added to a final concentration of 30 mM and the mixture was incubated for 15 min at room temperature. Samples were denaturized and loaded on 15% SDS-PAGE. The gels were stained with coomassie blue (InstantBlue, Expedeon, CA, USA) and visualized with MiniBis pro (DNR Bio-Imaging Systems, Jerusalem, Israel).
BS^3 crosslinking assay—Human (4 μg) and murine M-CSFWT (1 μg), M-CSFC31S (1 μg) and M-CSFC31S,M27R (2.5 μg) were incubated with different concentrations of BS^3 [bis(sulfosuccinimidyl)suberate] (ThermoFisher Scientific, MA, USA) cross linker (0, 25 μM, 100 μM, 250 μM, 500 μM, 1000 μM and 2500 μM) for 30 min at room temperature. Then, […] was added to a final concentration of 30 mM, and the mixture was incubated for 15 min at room temperature. Samples were denaturized with sample buffer, boiled, and loaded on 15% SDS-PAGE for protein separation. The gels were stained with InstantBlue staining (Expedeon, CA, USA) for 40 min, followed by two washing steps with double distilled water. The gels were visualized with MiniBis pro (DNR Bio-Imaging Systems, Jerusalem, Israel).
Experiments were conducted in order to verify that the purified variants are incapable of dimerizing. The purified variants were incubated with a cross linker reagent (BS^3 [bis(sulfosuccinimidyl)suberate]) to enhance and visualize non-covalent intermolecular interactions. Following incubation, the reactions were stopped and the samples were loaded in denaturized conditions on a protein gel.
To validate the structural and computational analysis and to verify that M-CSFC31S,M27R is indeed a monomer, several biophysical assays were conducted. First, purified murine and human M-CSFWT, M-CSFC31S and M-CSFC31S,M27R were crosslinked via lysine residues using different amounts of BS^3 reagent [bis(sulfosuccinimidyl)suberate], and the proteins sizes were evaluated using SDS-PAGE (FIG. 16A). Murine M-CSFWT served as positive control, since it has a lysine in the dimerization site (K68), which facilitates the intermolecular cross-linking of the two monomers in the dimer. […] The dimer band became more prominent at higher BS^3 concentrations. It is likely that the non-covalent dimerization allows other lysines in M-CSFC31S to come into close proximity and crosslink.

human c-FMS = human c-FMS (Homo sapiens, UniProt P07333); details: previously disclosed (Elegheert et al. 2012); read-out: KD of M-CSF to c-FMS receptor; cited from earlier work
human c-FMS, sequence (P07333 20-972): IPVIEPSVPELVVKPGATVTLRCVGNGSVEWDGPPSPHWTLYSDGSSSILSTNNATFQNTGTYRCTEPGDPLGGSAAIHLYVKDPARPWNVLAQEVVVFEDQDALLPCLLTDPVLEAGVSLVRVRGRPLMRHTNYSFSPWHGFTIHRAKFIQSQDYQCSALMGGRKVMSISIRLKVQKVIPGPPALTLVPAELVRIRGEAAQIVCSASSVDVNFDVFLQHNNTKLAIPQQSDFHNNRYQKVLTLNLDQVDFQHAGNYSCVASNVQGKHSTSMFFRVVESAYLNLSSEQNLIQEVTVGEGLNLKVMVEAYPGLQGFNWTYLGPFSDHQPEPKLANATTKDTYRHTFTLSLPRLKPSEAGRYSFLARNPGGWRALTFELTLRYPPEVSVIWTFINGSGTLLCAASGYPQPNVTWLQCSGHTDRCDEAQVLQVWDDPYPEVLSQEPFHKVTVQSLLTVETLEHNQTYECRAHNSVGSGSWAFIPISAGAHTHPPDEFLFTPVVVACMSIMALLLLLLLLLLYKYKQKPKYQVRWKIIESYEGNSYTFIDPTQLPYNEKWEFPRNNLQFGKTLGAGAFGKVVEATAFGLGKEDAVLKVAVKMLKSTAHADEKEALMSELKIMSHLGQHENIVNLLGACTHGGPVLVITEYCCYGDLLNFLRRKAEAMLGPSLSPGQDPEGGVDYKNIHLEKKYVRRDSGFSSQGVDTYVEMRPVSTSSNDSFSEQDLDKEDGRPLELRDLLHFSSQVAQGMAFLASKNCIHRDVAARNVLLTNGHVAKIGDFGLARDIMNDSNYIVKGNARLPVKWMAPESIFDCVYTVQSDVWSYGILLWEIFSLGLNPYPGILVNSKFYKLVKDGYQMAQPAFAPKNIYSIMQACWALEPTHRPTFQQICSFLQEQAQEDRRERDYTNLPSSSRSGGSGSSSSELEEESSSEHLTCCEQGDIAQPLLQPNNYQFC

αvβ3 integrin, sequence (P06756 31-1048): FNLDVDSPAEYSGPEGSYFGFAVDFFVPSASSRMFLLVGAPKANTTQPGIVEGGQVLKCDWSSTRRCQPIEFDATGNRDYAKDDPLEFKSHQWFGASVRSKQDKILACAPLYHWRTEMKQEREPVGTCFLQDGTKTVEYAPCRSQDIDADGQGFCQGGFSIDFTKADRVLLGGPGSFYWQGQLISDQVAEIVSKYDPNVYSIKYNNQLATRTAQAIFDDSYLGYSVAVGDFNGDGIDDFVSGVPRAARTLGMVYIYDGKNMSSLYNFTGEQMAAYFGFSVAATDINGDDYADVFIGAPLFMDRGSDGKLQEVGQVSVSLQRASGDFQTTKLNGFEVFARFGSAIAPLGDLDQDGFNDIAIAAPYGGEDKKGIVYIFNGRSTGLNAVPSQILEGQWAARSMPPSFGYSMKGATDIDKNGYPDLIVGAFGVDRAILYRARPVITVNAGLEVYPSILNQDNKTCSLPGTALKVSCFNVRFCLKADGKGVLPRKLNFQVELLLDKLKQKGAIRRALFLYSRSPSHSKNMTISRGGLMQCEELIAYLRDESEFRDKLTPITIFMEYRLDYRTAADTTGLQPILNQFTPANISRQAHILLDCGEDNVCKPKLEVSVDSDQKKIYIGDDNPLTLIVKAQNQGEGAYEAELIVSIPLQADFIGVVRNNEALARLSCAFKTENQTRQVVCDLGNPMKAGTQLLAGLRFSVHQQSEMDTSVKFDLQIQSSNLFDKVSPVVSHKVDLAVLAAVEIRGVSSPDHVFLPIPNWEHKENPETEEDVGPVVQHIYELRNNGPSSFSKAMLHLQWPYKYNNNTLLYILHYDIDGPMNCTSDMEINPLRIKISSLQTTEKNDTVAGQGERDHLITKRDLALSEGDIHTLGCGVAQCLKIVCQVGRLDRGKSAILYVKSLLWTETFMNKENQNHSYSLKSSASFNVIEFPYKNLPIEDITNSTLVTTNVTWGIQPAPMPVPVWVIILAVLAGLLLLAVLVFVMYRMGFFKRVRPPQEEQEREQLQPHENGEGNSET
αvβ3 integrin, sequence (P05106 27-788): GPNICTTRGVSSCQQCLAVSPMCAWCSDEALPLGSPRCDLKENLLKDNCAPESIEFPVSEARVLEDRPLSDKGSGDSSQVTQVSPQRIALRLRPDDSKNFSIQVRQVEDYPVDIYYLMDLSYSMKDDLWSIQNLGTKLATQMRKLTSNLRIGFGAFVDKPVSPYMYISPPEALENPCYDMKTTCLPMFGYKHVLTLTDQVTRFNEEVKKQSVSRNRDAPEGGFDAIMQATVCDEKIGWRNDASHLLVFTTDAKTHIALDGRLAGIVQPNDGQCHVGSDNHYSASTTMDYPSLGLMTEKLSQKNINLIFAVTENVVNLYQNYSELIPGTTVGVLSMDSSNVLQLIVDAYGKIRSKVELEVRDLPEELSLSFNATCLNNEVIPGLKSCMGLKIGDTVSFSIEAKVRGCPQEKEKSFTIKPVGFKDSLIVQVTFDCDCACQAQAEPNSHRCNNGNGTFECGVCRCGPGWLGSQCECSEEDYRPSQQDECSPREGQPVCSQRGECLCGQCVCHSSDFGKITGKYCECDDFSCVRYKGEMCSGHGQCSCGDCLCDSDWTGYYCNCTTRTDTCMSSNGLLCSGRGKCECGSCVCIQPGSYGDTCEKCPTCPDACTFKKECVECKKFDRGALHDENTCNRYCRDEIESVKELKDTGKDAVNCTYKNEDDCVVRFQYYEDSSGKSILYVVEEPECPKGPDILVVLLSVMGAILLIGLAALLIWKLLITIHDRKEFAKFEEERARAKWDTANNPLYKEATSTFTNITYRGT

Q: With NCCCC(O)(P(=O)(O)O)P(=O)(O)O [Alendronate, reference compound] as the molecule, how does the “change in CTX-I levels compared to the PBS treated animals” value [1] read?
A: Its value is “significant decrease in CTX-I levels”.

Q: What about the CTX-I serum-concentration ([1]; individual animals n 1-6, * haemolytic sample) of the same molecule?
A: Its CTX-I serum-concentration is 25.4 and 20.03* and 18.21* and 27.86* and 19.1 and 20.9.

Q: With cRGDfV [reference compound] as the molecule, how does the Kd (αvβ3 integrin) read?
A: The Kd was 158 nM.

Q: With “vitronectin: one of the ligands of αvβ3 integrin” as the molecule, how does the Kd (αvβ3 integrin) read?
A: The Kd was 40.7 nM.

B1: M-CSFαvβ3: variant 4.22 with histidine to alanine mutations at positions 9 and 15; binds αvβ3 integrin but not c-FMS (protein)
chain: EEVSEYCSAMIGSGALQSLQRLIDQTSRGDSPSITFEFVDQEQLKDPVCYLKKAFLLVQDIMEDTMRFRDNTPNAIAIVQLQELSLRLKSCFTKDYEEHDKACVRTFYETPLQLLEKVKNVFNETKNLLDKDWNIFSKNCNNSFAECSSQGHERQSEGS
modifications: left off: small tags and cut ends
Q: Which results are given for B1?
A: actin ring formation (mature osteoclasts): decreased the condensation and density of podosomes; dimerization after BS^3 cross linking ([2]; Example 4, BS^3 up to 2500 μM, FIG. 8): did not show any dimerization

B2: murine M-CSFWT: wild-type murine M-CSF, positive control in cross-linking (protein)
chain: KEVSEHCSHMIGNGHLKVLQQLIDSQMETSCQIAFEFVDQEQLDDPVCYLKKAFFLVQDIIDETMRFKDNTPNANATERLQELSNNLNSCFTKDYEEQNKACVRTFHETPLQLLEKIKNFFNETKNLLEKDWNIFTKNCNNSFAKCSSRDVVTKPDCNCLYPKATPSSDPASASPHQPPAPSMAPLAGLAWDDSQRTEGSSLLPSELPLRIEDPGSAKQRPPR
Q: Which “monomer/dimer bands after BS^3 cross linking” value ([2]; Example 11, BS^3 0-2500 μM, SDS-PAGE, FIG. 16A) does the source give for B2 here?
A: The value was “almost entirely in a band with a molecular weight that fits the dimer size”.

B3: M-CSF: native monocyte/macrophage colony stimulating factor, natural ligand of c-FMS (Uniprot P09603) (protein, UniProt P09603 33-554, looked up)
Macrophage colony-stimulating …: EEVSEYCSHMIGSGHLQSLQRLIDSQMETSCQITFEFVDQEQLKDPVCYLKKAFLLVQDIMEDTMRFRDNTPNAIAIVQLQELSLRLKSCFTKDYEEHDKACVRTFYETPLQLLEKVKNVFNETKNLLDKDWNIFSKNCNNSFAECSSQDVVTKPDCNCLYPKAIPSSDPASVSPHQPLAPSMAPVAGLTWEDSEGTEGSSLLPGEQPLHTVDPGSAKQRPPRSTCQSFEPPETPVVKDSTIGGSPQPRPSVGAFNPGMEDILDSAMGTNWVPEEASGEASEIPVPQGTELSPSRPGGGSMQTEPARPSNFLSASSPLPASAKGQQPADVTGTALPRVGPVRPTGQDWNHTPQKTDHPSALLRDPPEPGSPRISSLRPQGLSNPSTLSAQPQLSRSHSSGSVLPLGELEGRRSTRDRRSPAEPEGGPASEGAARPLPRFNSVPLTDTGHERQSEGSFSPQLQESVFHLLVPSVILVLLAVGGLLFYRWRRRSHQEPQRADSPLEQPEGSPLTQDDRQVELPV
Q: Which Kd (human c-FMS) does the source give for B3 here?
A: The Kd was 13.6 nM.

Reference: patent US11976099B2, “Compositions and methods for treatment of bone associated diseases” (THE NATIONAL INSTITUTE FOR BIOTECHNOLOGY IN THE NEGEV LTD., priority 2016, dated 2024)
